What was measured:
[1] = target: human oxytocin receptor (human) (UniProt P30559); assay: radioligand displacement (3H-OT), SPA beads, COS-1 membranes
[2] = target: human vasopressin V2 receptor (human) (UniProt P30518); assay: radioligand displacement (3H-AVP), filtration, HEK293 membranes
[3] = target: human vasopressin V1b receptor (human) (UniProt P47901); assay: radioligand displacement (3H-AVP), WGA SPA beads, COS-1 membranes
[4] = target: human vasopressin V1a receptor (human) (UniProt P37288); assay: radioligand displacement (125I-V1a linear antagonist), SPA beads, COS-1 membranes
Sequence of human vasopressin V1a receptor (human) (P37288 whole entry): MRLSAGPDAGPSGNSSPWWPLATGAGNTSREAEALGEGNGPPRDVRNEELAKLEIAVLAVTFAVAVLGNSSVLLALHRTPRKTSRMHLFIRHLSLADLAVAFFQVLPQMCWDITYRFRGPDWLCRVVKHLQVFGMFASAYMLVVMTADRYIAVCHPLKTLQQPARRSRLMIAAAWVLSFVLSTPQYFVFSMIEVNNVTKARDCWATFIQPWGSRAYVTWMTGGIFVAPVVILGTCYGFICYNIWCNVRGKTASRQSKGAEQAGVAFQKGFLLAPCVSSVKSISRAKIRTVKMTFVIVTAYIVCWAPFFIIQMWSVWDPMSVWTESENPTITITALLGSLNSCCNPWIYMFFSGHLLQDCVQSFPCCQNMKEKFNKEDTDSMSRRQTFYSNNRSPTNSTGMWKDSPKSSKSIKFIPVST

[5] = target: human vasopressin V1b receptor (human) (UniProt P47901); assay: cell-based or functional assay
[6] = target: human oxytocin receptor (human) (UniProt P30559); assay: cell-based or functional assay
[7] = target: human vasopressin V1a receptor (human) (UniProt P37288); assay: cell-based or functional assay

Sequence of human oxytocin receptor (human) (P30559 whole entry): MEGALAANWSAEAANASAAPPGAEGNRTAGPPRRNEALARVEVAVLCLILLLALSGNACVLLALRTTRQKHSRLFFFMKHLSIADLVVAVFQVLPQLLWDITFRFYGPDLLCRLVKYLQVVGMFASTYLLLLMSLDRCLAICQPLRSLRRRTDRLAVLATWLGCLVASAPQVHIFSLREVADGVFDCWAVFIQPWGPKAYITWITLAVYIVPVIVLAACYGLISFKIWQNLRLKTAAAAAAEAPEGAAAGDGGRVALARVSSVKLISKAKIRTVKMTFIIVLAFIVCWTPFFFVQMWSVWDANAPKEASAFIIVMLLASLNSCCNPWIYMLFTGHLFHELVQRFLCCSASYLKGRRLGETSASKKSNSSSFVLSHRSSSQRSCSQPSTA
Sequence of human vasopressin V1b receptor (human) (P47901 whole entry): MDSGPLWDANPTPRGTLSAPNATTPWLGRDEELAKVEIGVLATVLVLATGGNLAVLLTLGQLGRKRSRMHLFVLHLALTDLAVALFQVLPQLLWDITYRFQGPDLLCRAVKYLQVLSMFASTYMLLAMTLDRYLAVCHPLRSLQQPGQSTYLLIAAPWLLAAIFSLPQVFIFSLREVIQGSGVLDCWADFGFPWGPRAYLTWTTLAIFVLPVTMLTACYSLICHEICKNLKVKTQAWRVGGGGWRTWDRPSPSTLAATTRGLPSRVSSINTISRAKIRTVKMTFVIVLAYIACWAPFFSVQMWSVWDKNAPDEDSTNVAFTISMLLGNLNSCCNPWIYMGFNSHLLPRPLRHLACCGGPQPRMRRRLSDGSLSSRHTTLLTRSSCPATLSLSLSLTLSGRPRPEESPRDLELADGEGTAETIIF

IC50 [1] | IC50 [2] | IC50 [3] | IC50 [4] | EC50, FLIPR calcium assay [5] | EC50, IP-One HTRF assay [5] | Emax, FLIPR calcium assay [5] | Emax, IP-One HTRF assay [5] | EC50, FLIPR calcium assay [6] | EC50, IP-One HTRF assay [6] | Emax, FLIPR calcium assay [6] | Emax, IP-One HTRF assay [6] | EC50, FLIPR calcium assay [7] | EC50, IP-One HTRF assay [7] | Emax, FLIPR calcium assay [7] | Emax, IP-One HTRF assay [7] | Substance
0.008 µM | – | – | – | – | – | – | – | 0.0113 µM | 0.0133 µM | 86% | 98% | 4.28 µM | > 10 µM | – | – | [Te-Te]-Oxytocin (peptide)
0.0017 µM | – | – | – | – | – | – | – | 0.00039 µM | 0.00071 µM | 89% | 100% | 0.0461 µM | – | 54% | – | dOT (peptide)

Continued, substance first:

Substance | IC50 [1] | IC50 [2] | IC50 [3] | IC50 [4] | EC50, FLIPR calcium assay [5] | EC50, IP-One HTRF assay [5] | Emax, FLIPR calcium assay [5] | Emax, IP-One HTRF assay [5] | EC50, FLIPR calcium assay [6] | EC50, IP-One HTRF assay [6] | Emax, FLIPR calcium assay [6] | Emax, IP-One HTRF assay [6] | EC50, FLIPR calcium assay [7] | EC50, IP-One HTRF assay [7] | Emax, FLIPR calcium assay [7] | Emax, IP-One HTRF assay [7]
[C1,6U]-OT (peptide) | 0.538 µM | 3.35 µM | 1.76 µM | 0.127 µM | 0.00775 µM | 0.51 µM | 82% | 103% | 0.00139 µM | 0.018 µM | 86% | 94% | 0.0359 µM | 0.269 µM | 100% | 70%
[C1,6U]-OT-OH (peptide) | – | – | – | – | 2.46 µM | > 100 µM | 63% | – | – | – | – | – | – | – | – | –
[CH2-S]-OT (peptide) | – | – | – | – | – | – | – | – | – | – | – | 64% | – | – | – | 75%

Source: US20130130985A1
